Data reported in article PMC9087282, “The W-Acidic Motif of Histidine Kinase WalK Is Required for Signaling and Transcriptional Regulation in Streptococcus mutans” (Frontiers in Microbiology, 2022).
Changes are numbered by the printed parent chain.

Legend:
[1] = target: S. mutans WalR full-length (Streptococcus mutans UA159); assay: ITC; MicroCal iTC200, 25°C; 500 μM WalK (196–450) WT or CTT mutant in the syringe, 20 μM full-length WalR in the cell; 20 mM Tris-HCl pH 8.0, 200 mM NaCl, 20% glycerol
[2] = target: GST fusion protein with full-length S. aureus WalR (1–233) (Staphylococcus aureus NCTC8325) (UniProt Q2G2U6)
WalR DBD = WalR DBD (Streptococcus mutans UA159, UniProt Q93MY4 129-235); assay: EMSA; 20 uM DNA; complex released by WalK 196-450 (W443A and delta-tail WalK compete less); settings: protein: recombinant; chain copies: 2
WalK (196-450) = WalK (196-450) (Streptococcus mutans UA159, UniProt Q8DT64 196-450); assay: EMSA; settings: protein: recombinant; tags: N-terminal His
WalR full-length = WalR full-length (Streptococcus mutans UA159, UniProt Q93MY4 1-235); assay: EMSA; 20 uM DNA; complex released by increasing WalK 196-450; settings: protein: recombinant; chain copies: 2
[3] = target: T1, S. aureus WalK (364–608) WT (Staphylococcus aureus NCTC8325, UniProt Q2G2U4 364-608); assay: pull-down; GST-tagged WalR protein held on glutathione agarose beads, His-tagged WalK as prey, equal molar amounts (~3 μl of 50 μM each) in 1 ml of 20 mM Tris-HCl pH 8.0, 200 mM NaCl, 5% glycerol, 2 mM EDTA, 2 h at 4°C; SDS-PAGE stained with CBB; settings: both partners purified
T1 construct: cloned in pET-His; source: E. coli BL21 (DE3), purified (Ni-NTA, Superdex 200); not shown: His tag, N-terminal, kept
T1 sequence (looked up): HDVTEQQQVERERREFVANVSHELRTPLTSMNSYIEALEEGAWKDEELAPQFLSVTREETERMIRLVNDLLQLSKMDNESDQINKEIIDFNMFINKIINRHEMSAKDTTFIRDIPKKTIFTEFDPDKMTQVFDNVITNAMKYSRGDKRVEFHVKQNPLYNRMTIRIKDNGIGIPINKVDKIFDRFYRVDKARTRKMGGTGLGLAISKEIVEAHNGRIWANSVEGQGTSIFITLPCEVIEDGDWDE

[4] = target: T2, S. aureus WalK (364–608) D605A (Staphylococcus aureus NCTC8325, UniProt Q2G2U4 364-608, D605A); assay: as above; settings: both partners purified
T2 construct: source: E. coli BL21 (DE3), purified (Ni-NTA, Superdex 200); not shown: His tag, N-terminal, kept
T2 sequence: T1 sequence (looked up) with D242A

Molecule: S. mutans WalK (196–450) WT (domain or fragment)
- Kd [1]: 1210 nM

Molecule: S. aureus WalK (364–608) D607A (from UniProt Q2G2U4 364-608) (domain or fragment)
- phosphotransferase activity of S. aureus WalK (364–608) with WalR (loss of phospho-WalK, at 30 min) [2]: 2 ×

Molecule: S. aureus WalK (364–608) W606A (from UniProt Q2G2U4 364-608) (domain or fragment)
- phosphotransferase activity of S. aureus WalK (364–608) with WalR (loss of phospho-WalK, at 30 min) [2]: 2 ×

B1: gtfC promoter 25-mer (dsDNA)
DNA 1: GTTTGTTATAAAAGTGTTACAATAC
DNA 2: GTATTGTAACACTTTTATAACAAAC
- binding result (WalR DBD): binds
- binding result (WalK (196-450)): no binding
- binding result (WalR full-length): binds

B2: GST fusion protein with full-length S. aureus WalR (1–233) (natural protein, Staphylococcus aureus NCTC8325, UniProt Q2G2U6 1-233, looked up)
chain: MARKVVVVDDEKPIADILEFNLKKEGYDVYCAYDGNDAVDLIYEEEPDIVLLDIMLPGRDGMEVCREVRKKYEMPIIMLTAKDSEIDKVLGLELGADDYVTKPFSTRELIARVKANLRRHYSQPAQDTGNVTNEITIKDIVIYPDAYSIKKRGEDIELTHREFELFHYLSKHMGQVMTREHLLQTVWGYDYFGDVRTVDVTIRRLREKIEDDPSHPEYIVTRRGVGYFLQQHE
notes: cloned in pET-GST; also called GST-WalR; source: E. coli BL21 (DE3), purified (glutathione agarose, Superdex 200); not shown: GST, N-terminal, kept
- binding result [3]: binds
- binding result [4]: binds
